# Measured values: patent publication US20180155451A1 (published 2018)
# T1: FcγRIIb extracellular domain with C-terminal His tag (human, UniProt P31994 43-217)
# T1 construct: extracellular domain; also called FcgRIIb; 2b; not shown: His tag at the C terminus
# T1 sequence (looked up): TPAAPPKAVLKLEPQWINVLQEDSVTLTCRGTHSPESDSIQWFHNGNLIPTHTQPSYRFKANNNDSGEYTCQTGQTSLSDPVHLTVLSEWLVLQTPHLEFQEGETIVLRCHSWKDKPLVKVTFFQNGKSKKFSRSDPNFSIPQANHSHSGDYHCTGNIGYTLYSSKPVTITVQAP
# T2: FcγRIIa H (FcγRIIa type H, His at position 131), extracellular domain with C-terminal His tag (human, UniProt P12318 34-217)
# T2 construct: extracellular domain; also called 2aH; FcgRIIa H; not shown: His tag at the C terminus
# T2 sequence (looked up): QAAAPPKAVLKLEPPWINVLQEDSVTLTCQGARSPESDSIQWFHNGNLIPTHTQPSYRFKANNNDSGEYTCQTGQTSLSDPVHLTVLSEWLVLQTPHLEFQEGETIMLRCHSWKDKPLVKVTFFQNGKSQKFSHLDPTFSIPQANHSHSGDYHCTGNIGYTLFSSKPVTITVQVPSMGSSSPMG
# T3: FcγRIIb, extracellular domain with C-terminal His tag (human, UniProt P31994 43-217)
# T3 construct: extracellular domain; also called 2b; FcgRIIb; not shown: His tag at the C terminus
# T3 sequence (looked up): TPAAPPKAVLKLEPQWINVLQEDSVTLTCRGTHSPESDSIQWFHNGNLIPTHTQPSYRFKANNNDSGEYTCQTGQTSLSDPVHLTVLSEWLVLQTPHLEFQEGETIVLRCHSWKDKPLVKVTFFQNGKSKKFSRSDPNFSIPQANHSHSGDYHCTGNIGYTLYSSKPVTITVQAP
# Experiments:
# [1] = target: T4, FcγRIIIa extracellular domain with C-terminal His tag (human, UniProt P08637 17-208); assay: SPR (Biacore), antibody captured on antigen peptide chip, FcγR as analyte; relative binding amount
# T4 construct: extracellular domain; also called FcgRIIIa; 3a; not shown: His tag at the C terminus
# Protocol: (§1) Analysis of interaction between objective antibody and the FcγR was carried out using Biacore T100 (GE Healthcare). HBS-EP+ (GE Healthcare) was used as the running buffer, and the measurement temperature was set to 25° C. Chips produced by immobilizing the antigen peptide by the amine coupling method to a Series S Sencor Chip CM5 (GE Healthcare), or alternatively, chips produced by allowing preliminarily biotinylated antigen peptides to interact with and immobilize onto a Series S Sensor Chip SA (certified) (GE Healthcare) were used. Antibodies of interest were captured onto an antigen peptide-immobilized chip, and allowed to interact to each FcγR diluted with running buffer. To regenerate and repeatedly use the chip, the antibodies captured on the chip were washed off by reacting 10 mM glycine-HCl, pH 1.5.
# (§2) The FcγR-binding activity of each antibody was assessed primarily using as an indicator the FcγR-binding activity and dissociation constant for FcγR.
# [2] = target: T1, FcγRIIb extracellular domain with …; assay: as above
# Protocol: as §1, §2
# [3] = target: T2, FcγRIIa H (FcγRIIa type H, His at …); assay: SPR (Biacore), antibody captured on antigen-peptide chip, FcγR as analyte; GpH7-A5/GpH7-B3/GpL16-k0 = 100
# Protocol: (§3) The heterodimerized antibodies He Abs in which one of the H chains was introduced with an alteration were assayed for their binding activities to each activating FcγR and inhibitory FcγR according to the method described in Example 4. […] The activating FcγRs in FIGS. 26, 27, 28, and 29 are FcγRIa, FcγRIIa (R), FcγRIIa (H), and FcγRIIIa, respectively.
# as §1
# [4] = target: T3, FcγRIIb, extracellular domain with …; assay: as above
# Protocol: as §3, §1
# T4 sequence (P08637 17-208): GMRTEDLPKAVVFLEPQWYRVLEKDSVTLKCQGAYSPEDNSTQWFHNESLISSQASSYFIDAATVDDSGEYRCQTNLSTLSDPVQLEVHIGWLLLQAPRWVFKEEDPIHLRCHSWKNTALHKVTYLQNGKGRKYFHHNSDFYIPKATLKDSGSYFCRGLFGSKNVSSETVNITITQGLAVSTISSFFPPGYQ
Binder,He/Con_3a [1],He/Con_2b [2],He/Con_2aH (relative binding activity) [3],He/Con_2b (relative binding activity) [4]
"GpH7-A5/GpH7-B3 variant A327_01G/GpL16-k0 (antibody, human IgG1, kappa, Heterodimerized anti-glypican-3 IgG1; the substitution stands in the GpH7-B3 chain only; also called He Ab) heavy 1: not shown heavy 2: not shown light: DIVMTQSPLSLPVTPGEPASISCQASESLVHSNRNTYLHWYLQKPGQSPQLLIYKVSNRFSGVPDRFSGSGSGTDFTLKISRVEAEDVGVYYCSQNTHVPPTFGQGTKVEIERTVAAPSVFIFPPSDEQLKSGTASVVCLLNNFYPREAKVQWKVDNALQSGNSQESVTEQDSKDSTYSLSSTLTLSKADYEKHKVYACEVTHQGLSSPVTKSFNRGEC",72.4 % of GpH7-A5/GpH7-B3/GpL16-k0 (=100),116 % of GpH7-A5/GpH7-B3/GpL16-k0 (=100),–,–
"GpH7-A5/GpH7-B3 variant H268_20W/GpL16-k0 (antibody, human IgG1, kappa, Heterodimerized anti-glypican-3 IgG1; the substitution stands in the GpH7-B3 chain only; also called He Ab) heavy 1: not shown heavy 2: not shown light: DIVMTQSPLSLPVTPGEPASISCQASESLVHSNRNTYLHWYLQKPGQSPQLLIYKVSNRFSGVPDRFSGSGSGTDFTLKISRVEAEDVGVYYCSQNTHVPPTFGQGTKVEIERTVAAPSVFIFPPSDEQLKSGTASVVCLLNNFYPREAKVQWKVDNALQSGNSQESVTEQDSKDSTYSLSSTLTLSKADYEKHKVYACEVTHQGLSSPVTKSFNRGEC",82.8 % of GpH7-A5/GpH7-B3/GpL16-k0 (=100),111 % of GpH7-A5/GpH7-B3/GpL16-k0 (=100),–,–
"GpH7-A5/GpH7-B3 variant K326_16H/GpL16-k0 (antibody, human IgG1, kappa, Heterodimerized anti-glypican-3 IgG1; the substitution stands in the GpH7-B3 chain only; also called He Ab) heavy 1: not shown heavy 2: not shown light: DIVMTQSPLSLPVTPGEPASISCQASESLVHSNRNTYLHWYLQKPGQSPQLLIYKVSNRFSGVPDRFSGSGSGTDFTLKISRVEAEDVGVYYCSQNTHVPPTFGQGTKVEIERTVAAPSVFIFPPSDEQLKSGTASVVCLLNNFYPREAKVQWKVDNALQSGNSQESVTEQDSKDSTYSLSSTLTLSKADYEKHKVYACEVTHQGLSSPVTKSFNRGEC",96.1 % of GpH7-A5/GpH7-B3/GpL16-k0 (=100),119 % of GpH7-A5/GpH7-B3/GpL16-k0 (=100),–,–
"GpH7-A5/GpH7-B3 variant H268_05P/GpL16-k0 (antibody, human IgG1, kappa, Heterodimerized anti-glypican-3 IgG1; the substitution stands in the GpH7-B3 chain only; also called He Ab) heavy 1: not shown heavy 2: not shown light: DIVMTQSPLSLPVTPGEPASISCQASESLVHSNRNTYLHWYLQKPGQSPQLLIYKVSNRFSGVPDRFSGSGSGTDFTLKISRVEAEDVGVYYCSQNTHVPPTFGQGTKVEIERTVAAPSVFIFPPSDEQLKSGTASVVCLLNNFYPREAKVQWKVDNALQSGNSQESVTEQDSKDSTYSLSSTLTLSKADYEKHKVYACEVTHQGLSSPVTKSFNRGEC",76.4 % of GpH7-A5/GpH7-B3/GpL16-k0 (=100),116 % of GpH7-A5/GpH7-B3/GpL16-k0 (=100),–,–
"GpH7-A5/GpH7-B3 variant H268_03V/GpL16-k0 (antibody, human IgG1, kappa, Heterodimerized anti-glypican-3 IgG1; the substitution stands in the GpH7-B3 chain only; also called He Ab) heavy 1: not shown heavy 2: not shown light: DIVMTQSPLSLPVTPGEPASISCQASESLVHSNRNTYLHWYLQKPGQSPQLLIYKVSNRFSGVPDRFSGSGSGTDFTLKISRVEAEDVGVYYCSQNTHVPPTFGQGTKVEIERTVAAPSVFIFPPSDEQLKSGTASVVCLLNNFYPREAKVQWKVDNALQSGNSQESVTEQDSKDSTYSLSSTLTLSKADYEKHKVYACEVTHQGLSSPVTKSFNRGEC",92.3 % of GpH7-A5/GpH7-B3/GpL16-k0 (=100),114 % of GpH7-A5/GpH7-B3/GpL16-k0 (=100),–,–

# Now from value to binder:
He/Con_3a [1],He/Con_2b [2],He/Con_2aH (relative binding activity) [3],He/Con_2b (relative binding activity) [4],Binder
84.8 % of GpH7-A5/GpH7-B3/GpL16-k0 (=100),148 % of GpH7-A5/GpH7-B3/GpL16-k0 (=100),–,–,"GpH7-A5/GpH7-B3 variant K326_20W/GpL16-k0 (antibody, human IgG1, kappa, Heterodimerized anti-glypican-3 IgG1; the substitution stands in the GpH7-B3 chain only; also called He Ab) heavy 1: not shown heavy 2: not shown light: DIVMTQSPLSLPVTPGEPASISCQASESLVHSNRNTYLHWYLQKPGQSPQLLIYKVSNRFSGVPDRFSGSGSGTDFTLKISRVEAEDVGVYYCSQNTHVPPTFGQGTKVEIERTVAAPSVFIFPPSDEQLKSGTASVVCLLNNFYPREAKVQWKVDNALQSGNSQESVTEQDSKDSTYSLSSTLTLSKADYEKHKVYACEVTHQGLSSPVTKSFNRGEC"
28 % of GpH7-A5/GpH7-B3/GpL16-k0 (=100),101 % of GpH7-A5/GpH7-B3/GpL16-k0 (=100),–,–,"GpH7-A5/GpH7-B3 variant N325_01G/GpL16-k0 (antibody, human IgG1, kappa, Heterodimerized anti-glypican-3 IgG1; the substitution stands in the GpH7-B3 chain only; also called He Ab) heavy 1: not shown heavy 2: not shown light: DIVMTQSPLSLPVTPGEPASISCQASESLVHSNRNTYLHWYLQKPGQSPQLLIYKVSNRFSGVPDRFSGSGSGTDFTLKISRVEAEDVGVYYCSQNTHVPPTFGQGTKVEIERTVAAPSVFIFPPSDEQLKSGTASVVCLLNNFYPREAKVQWKVDNALQSGNSQESVTEQDSKDSTYSLSSTLTLSKADYEKHKVYACEVTHQGLSSPVTKSFNRGEC"
–,–,96.1 % of control,108 % of control,"GpH7-A5/GpH7-B3 variant Y300_19Q/GpL16-k0 (antibody, human IgG1, kappa, Heterodimerized IgG1 (He Ab); mutation only in the GpH7-B3 chain; also called He Ab Y300Q) heavy 1: not shown heavy 2: not shown light: DIVMTQSPLSLPVTPGEPASISCQASESLVHSNRNTYLHWYLQKPGQSPQLLIYKVSNRFSGVPDRFSGSGSGTDFTLKISRVEAEDVGVYYCSQNTHVPPTFGQGTKVEIERTVAAPSVFIFPPSDEQLKSGTASVVCLLNNFYPREAKVQWKVDNALQSGNSQESVTEQDSKDSTYSLSSTLTLSKADYEKHKVYACEVTHQGLSSPVTKSFNRGEC"
